From patent publication US20210338656A1, “IMMUNOSTIMULATORY AGENTS IN COMBINATION WITH ANGIOGENESIS INHIBITORS” (Alkermes Pharma Ireland Limited, priority 2020, published 2021) come the findings set out here.

The test system of data set [1] is conventional CD4+ T cells, CD4+ Tregs, CD8+ T cells, macrophages, dendritic cells in tumors and spleens. The experiment in a line: Flow cytometry of tumors and spleens of MC38 tumor-bearing mice, Day 10. Type of data set: in vivo, mouse. The procedure: On Day 10 spleens and tumors were collected and weighed from all animals in Groups 7 through 12 and weighed prior to processing. Tissues from four animals in each group were processed to single cell suspensions for flow cytometry analysis at CRL-NC (described below). Tissues from the remaining six animals in each group were preserved in RNAlater, stored at −80° C.
Mouse spleen samples were dissociated by gently grinding the tissue across fine mesh with RPMI-1640 media and lysing red blood cells with ACK (ammonium chloride potassium) buffer according to the manufacturer's instructions. Samples were centrifuged and washed twice with PBS.
Mouse tumor samples were dissociated according to the manufacturer's instructions using the gentleMACS™ “Tumor Dissociation Kit” protocol. Tumor samples were filtered through a 70 μm cell strainer and rinsed twice in PBS/2.5% FBS buffer to remove enzymatic buffer. Total tumor sample and plated well volumes were measured and recorded.
Total tissue volumes and Cellometer counts from each sample were recorded. Final single cell suspensions were prepared in PBS pH 7.4 at 2×10^7 cells/mL and held briefly on ice prior to flow cytometry analysis, including conventional CD4^+ T cells, CD4^+ Tregs, CD8^+ T cells, macrophages, and dendritic cells (as % CD45^+ and as cells/mg tissue).
Single cell suspensions were added into 96-well plates and stained for 30 minutes at 4° C. with 100 μL of the reconstituted Live/Dead Aqua (Life Technologies) following manufacturer's instructions. After two washes with 150 μL of Staining Buffer, Fc receptors were blocked using TruStain Fc (Biolegend) in 100 μL volume for five to ten minutes on ice prior to immunostaining. Cells were stained for 30 minutes at 37° C. with antibody panels as described in the protocol. Cells were washed twice with 150 μL of Staining Buffer and resuspended in […] Staining Buffer for analysis. For staining of internal markers such as FoxP3, cells were permeabilized with 200 μL of Transcription Factor Fixation/Permeabilization buffer (eBioscience) for 15 minutes at 4° C. according to manufacturer's instructions. After two washes with 150 μL of Permeabilization Buffer (eBioscience), internal marker staining was carried out using 0.1 μg of each antibody diluted in 100 μL of Permeabilization Buffer for 30 minutes at 4° C. protected from the light. Cells were washed twice with 150 μL of Permeabilization Buffer and resuspended in 100 μL of Staining Buffer. 100 μL of Staining Buffer containing Countbright beads were added to each sample. Isotype-control antibodies were used as negative staining controls when deemed necessary.
All data were collected on a FortessaLSR (BD) and analyzed with FlowJo software (version 10.0.7r2, Tree Star, Inc.). Cell populations were defined as described in the protocol, and the gating strategy was determined by initial gating on singlets (FSC-H vs. FSCA) and then live cells, based on Live/Dead Aqua viability staining.

Data set [2] is described as follows: Tolerability in vivo in mice relative to rhIL-2. Also noted: species or system mouse. The settings on record: doses that elicit equivalent or greater expansion of effector cells relative to Tregs.

Take `CNC(=O)c1cccc2cc(Oc3ccnc4cc(OCC5(N)CC5)c(OC)cc34)ccc12` [Lucitanib, 6-(7-((1-Aminocyclopropyl)-methoxy)-6-methoxyquinolin-4-yloxy)-N-methyl-1-naphthamide]: in data set [1], the “macrophages in spleens and tumors” value is given as “decrease”. Also, the “conventional CD4+ T cells in spleen” value in data set [1] (compared to vehicle) is given as “increase”.

B1: SEQ ID NO: 2: mouse ortholog construct (murine surrogate) of the circularly permuted IL-2/IL-2Rα fusion protein of SEQ ID NO: 1 (protein)
chain: SKSFQLEDAENFISNIRVTVVKLKGSDNTFECQFDDESATVVDFLRRWIAFCQSIISTSPQGGSSSTQQQQQHLEQLLMDLQELLSRMENYRNLKLPRMLTFKFYLPKQATELKDLQCLEDELGPLRHVLDLTQGSGGGSELCLYDPPEVPNATFKALSYKNGTILNCECKRGFRRLKELVYMRCLGNSWSSNCQCTSNSHDKSRKQVTAQLEHQKEQQTTTDMQKPTQSMHQENLTGHCREPPPWKHEDSKRIYHFVEGQSVHYECIPGYKALQRGPAISICKMKCGKTGWTQPQLTCVDGSHHHHHH
modifications: Mouse cpIL-2IL-2R-alpha
On to B1, for which, in data set [1], the “CD4+ Tregs in spleens” value is on record as “decrease”; the “CD8+ T cells in spleens and tumors” value was “increase”; the “Foxp3+ regulatory T cells (Tregs)” value is “without an increase”; the “dendritic cells in spleens and tumors” value is on record as “increase”. For the same molecule, the “macrophages in spleens and tumors” value in data set [1] is on record as “decrease”. Also, in data set [1] (compared to vehicle), the “conventional CD4+ T cells in spleen” value is on record as “decreased”, the “numbers of conventional CD4+ T cells in tumors” value is recorded as “neither treatment with SEQ ID NO: 2 nor the combination with lucitanib changed the numbers” and the “peripheral CD8+ T cell expansion” value is “significant peripheral CD8^+ T cell expansion”. Moreover, in data set [2], the “tolerability relative to recombinant human IL-2 (rhIL-2)” value was “improved tolerability”.
